For data set [1], the target named is Cyt1-NADP-ME from maize extracts (maize (endogenous in maize etiolated leaves and roots)). Nature of the data set: native gel or EMSA; native PAGE (7%) of maize extracts of etiolated leaves and roots; in-gel NADP-ME activity assay, active bands excised and identified by mass spectrometry; mobility compared with the recombinant proteins. On the technique in general: A gel shift assay detects complexes by their altered migration in electrophoresis.

For data set [2], the target named is Cyt2-NADP-ME from maize extracts (maize (endogenous in maize etiolated leaves and roots)). Described as above.
Data set [3] deals with maize nonC4-NADP-malic enzyme, recombinant wild type (maize (Zea mays)). Nature of the data set: AUC; sedimentation velocity of recombinant proteins; 20 mM Tris-HCl pH 7.0 or 8.0, 5 mM MgCl2; 1.1 mg/ml (16 uM); 20 °C, 35,000 rpm; c(s) model in SEDFIT; self-association, dimers and tetramers.
For data set [4] the target is unchanged. Nature of the data set: cryo-EM structure; single-particle cryo-EM of His-tagged proteins, 0.2 to 0.5 mg/ml, 20 mM Tris-HCl, 5 mM MgCl2, 40 mM pyruvate, 2 mM NADP, pH 8.0; oligomeric state from the numbers of particles.
The target is the same in data set [5]. Briefly: native gel or EMSA; native PAGE (6% or 7%) of purified recombinant proteins, 100 V, 4 °C; Coomassie staining or in-gel NADP-ME activity assay; oligomeric state from mobility against native markers.
For data set [6] the target is unchanged. The description is as above. This is another data set of the same source.
Data set [7] deals with nonC4I148F mutant of maize nonC4-NADP-ME (maize (Zea mays)). The description is as above.
In data set [8] the target is nonC4N172D mutant of maize nonC4-NADP-ME (maize (Zea mays)). The data set is described as above.
Data set [9] addresses nonC4R208G mutant of maize nonC4-NADP-ME (maize (Zea mays)). Described as above.
Data set [10] deals with nonC4Δ15 with I148F (maize (Zea mays)). The description is as above.
Data set [11] has as its target nonC4Δ15 with N172D (maize (Zea mays)). The description is as above.
Data set [12] addresses nonC4Δ15 with R171T (maize (Zea mays)). The data set is described as above.
Data set [13] addresses nonC4Δ15 with R208G (maize (Zea mays)). The data set is described as above.
Data set [14] deals with the molecule itself. Nature of the data set: AUC; sedimentation velocity of recombinant proteins; 20 mM Tris-HCl pH 7.0 or 8.0, 5 mM MgCl2; 1.1 mg/ml (16 uM); 20 °C, 35,000 rpm; c(s) model in SEDFIT; self-association, dimers and tetramers.
Data set [15] deals with the molecule itself. Nature of the data set: native gel or EMSA; native PAGE (7%) of maize extracts of etiolated leaves and roots; in-gel NADP-ME activity assay, active bands excised and identified by mass spectrometry; mobility compared with the recombinant proteins.

Where “and” joins values, the source holds several entries; their conditions need not be identical. Equal entries are not always repeated.

For orientation: stoichiometry N means a count of units in the complex or per binding partner. On to “Cyt1-NADP-ME from maize extracts (enzyme)”, for which, in data set [1], the stoichiometry N was 4. Turning to “Cyt2-NADP-ME from maize extracts (enzyme)”, the stoichiometry N in data set [2] is 4. As for “maize nonC4-NADP-malic enzyme, recombinant wild type”, the stoichiometry N is 2 and 4 in [3]; 2 in [4]; 2 in [5]; 4 in [6]. Moreover, the percent tetramers in data set [4] was 10%. As to “nonC4I148F mutant of maize nonC4-NADP-ME (enzyme)”, the stoichiometry N in data set [7] worked out at 2. On to “nonC4N172D mutant of maize nonC4-NADP-ME (enzyme)”, for which the stoichiometry N in data set [8] is 4.

Regarding “nonC4R208G mutant of maize nonC4-NADP-ME (enzyme)”, the stoichiometry N in data set [9] stood at 4. For the molecule nonC4Δ15 with I148F (enzyme), the stoichiometry N in data set [10] was 4 and 2. In the case of nonC4Δ15 with N172D (enzyme), the stoichiometry N in data set [11] turned out to be 4. For nonC4Δ15 with R171T (enzyme), the stoichiometry N in [12] was 4 and 2.

Consider nonC4Δ15 with R208G (enzyme), for which the stoichiometry N in data set [13] came out at 4.

B1: maize C4-NADP-malic enzyme, recombinant wild type (enzyme, maize (Zea mays), UniProt P16243 63-636, looked up)
chain: MVSNAETETEKEQEEAAAASEELPVMPWATSVASGYTLLRDPHHNKGLAFTEEERDGHYLRGLLPPAVLSQELQIKKFMNTLRQYQTPLQRYIAMMNLQETDERLFYKLLIDNVVELLPFVYTPTVGEACQKYGSIFGRPQGLYVSLKDKGKVLEVLRNWPHRNIQVICVTDGERILGLGDLGCQGMGIPVGKLALYTALGGVDPSVCLPITIDVGTNNEFLLNDEFYIGLRQKRATGEEYDELIEEFMSAVKQFYGEKVLIQFEDFANHNAFDLLEKYSKSHLVFNDDIQGTASVVLAGLLAALKMVGGTLAEQTYLFLGAGEAGTGIAELIALEISKQTNAPIEECRKKVWLVDSKGLIVDSRKGSLQPFKKPWAHEHEPLKTLYDAVQSIKPTVLIGTSGVGRTFTKEIIEAMSSFNERPIIFSLSNPTSHSECTAEQAYTWSQGRSIFASGSPFAPVEYEGKTFVPGQSNNAYIFPGLGLGLVISGAVRVHEDMLLAASKALADQATQDNFEKGSIFPPFTSIRKISAHIAAAVAGKAYELGLATRLPPPSDLVKYAENCMYTPVYRNYR
notes: C4-NADP-malic enzyme (ZmC4-NADP-ME), plastidic C4 isoform of maize; construct of Alvarez et al. 2019; Vector pET16b::ZmC4-NADP-ME (Alvarez et al. 2019); also called C4-NADP-ME; ZmC4-NADP-ME; source: E. coli Rosetta2 (DE3) or ArcticExpress (DE3), purified (Ni-NTA)
Consider B1, for which, in data set [14], the “stoichiometry N” value is 4.

B2: C4-NADP-ME from maize extracts (enzyme, UniProt P16243 63-636, looked up)
chain: B1 chain
notes: C4-NADP-malic enzyme, plastidic C4 isoform of maize, identified by mass spectrometry in an active band of a native gel; source: endogenous, extracts of maize etiolated leaves and roots
B2: in [15], the “stoichiometry N” value came out at 4.

Source of the values: article PMC13100509, “A milestone in C4 carbon concentration mechanism evolution: structural remodeling of NADP-malic enzyme in Poaceae” (Molecular Biology and Evolution, 2026).
